According to patent publication US20120270784A1 (THERATECHNOLOGIES, published 2012):
Where no end group is shown, it is not given here.

T1: human GRF receptor (human, UniProt Q02643 23-423)
T1 sequence (looked up): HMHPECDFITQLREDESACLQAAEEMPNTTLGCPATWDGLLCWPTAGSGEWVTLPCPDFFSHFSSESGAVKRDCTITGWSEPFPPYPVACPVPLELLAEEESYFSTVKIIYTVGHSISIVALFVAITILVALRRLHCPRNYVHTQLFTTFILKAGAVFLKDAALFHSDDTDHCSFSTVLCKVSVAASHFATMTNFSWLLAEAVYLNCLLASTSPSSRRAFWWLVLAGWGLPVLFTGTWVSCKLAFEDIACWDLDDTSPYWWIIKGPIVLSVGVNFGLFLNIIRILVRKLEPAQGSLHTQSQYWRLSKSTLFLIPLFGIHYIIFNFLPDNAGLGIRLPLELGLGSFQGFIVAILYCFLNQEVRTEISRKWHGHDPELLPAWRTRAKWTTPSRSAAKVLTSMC


molecular target: T1, human GRF receptor; experiment: cell-based or functional assay

Binder | EC50 as assessed by alkaline phosphatase (AP) induction
YGDAIFTDSYRKVLAQLKARQDILARAARAAR-NH2 [YGDAIFTDSYRKVLAQLKARQDILARAARAAR-NH2 (SEQ ID NO: 34)] | 0.2 nM
YSDAIFTDSYRKVLAQLKARQDILARAARAAR-NH2 [YSDAIFTDSYRKVLAQLKARQDILARAARAAR-NH2 (SEQ ID NO: 33)] | 0.25 nM
YXDAIFTDSYRKVLAQLKARQDILARAARAAR (HELM PEPTIDE1{Y.[dA].D.A.I.F.T.D.S.Y.R.K.V.L.A.Q.L.K.A.R.Q.D.I.L.A.R.A.A.R.A.A.R.[am]}$$$$V2.0; N-terminus assumed; SMILES CC[C@H](C)[C@H](NC(=O)[C@H](C)NC(=O)[C@H](CC(=O)O)NC(=O)[C@@H](C)NC(=O)[C@@H](N)Cc1ccc(O)cc1)C(=O)N[C@@H](Cc1ccccc1)C(=O)N[C@H](C(=O)N[C@@H](CC(=O)O)C(=O)N[C@@H](CO)C(=O)N[C@@H](Cc1ccc(O)cc1)C(=O)N[C@@H](CCCNC(=N)N)C(=O)N[C@@H](CCCCN)C(=O)N[C@H](C(=O)N[C@@H](CC(C)C)C(=O)N[C@@H](C)C(=O)N[C@@H](CCC(N)=O)C(=O)N[C@@H](CC(C)C)C(=O)N[C@@H](CCCCN)C(=O)N[C@@H](C)C(=O)N[C@@H](CCCNC(=N)N)C(=O)N[C@@H](CCC(N)=O)C(=O)N[C@@H](CC(=O)O)C(=O)N[C@H](C(=O)N[C@@H](CC(C)C)C(=O)N[C@@H](C)C(=O)N[C@@H](CCCNC(=N)N)C(=O)N[C@@H](C)C(=O)N[C@@H](C)C(=O)N[C@@H](CCCNC(=N)N)C(=O)N[C@@H](C)C(=O)N[C@@H](C)C(=O)N[C@@H](CCCNC(=N)N)C(N)=O)[C@@H](C)CC)C(C)C)[C@@H](C)O) [Y-a-DAIFTDSYRKVLAQLKARQDILARAARAAR-NH2 (SEQ ID NO: 28)] | 0.11 nM
YADAIFTDSYRKVLAQLKARQDLLARAARAAR (HELM PEPTIDE1{[CC/C=C/CC(=O)[*:2]].Y.A.D.A.I.F.T.D.S.Y.R.K.V.L.A.Q.L.K.A.R.Q.D.L.L.A.R.A.A.R.A.A.R.[am]}$$$$V2.0; SMILES CC/C=C/CC(=O)N[C@@H](Cc1ccc(O)cc1)C(=O)N[C@@H](C)C(=O)N[C@@H](CC(=O)O)C(=O)N[C@@H](C)C(=O)N[C@H](C(=O)N[C@@H](Cc1ccccc1)C(=O)N[C@H](C(=O)N[C@@H](CC(=O)O)C(=O)N[C@@H](CO)C(=O)N[C@@H](Cc1ccc(O)cc1)C(=O)N[C@@H](CCCNC(=N)N)C(=O)N[C@@H](CCCCN)C(=O)N[C@H](C(=O)N[C@@H](CC(C)C)C(=O)N[C@@H](C)C(=O)N[C@@H](CCC(N)=O)C(=O)N[C@@H](CC(C)C)C(=O)N[C@@H](CCCCN)C(=O)N[C@@H](C)C(=O)N[C@@H](CCCNC(=N)N)C(=O)N[C@@H](CCC(N)=O)C(=O)N[C@@H](CC(=O)O)C(=O)N[C@@H](CC(C)C)C(=O)N[C@@H](CC(C)C)C(=O)N[C@@H](C)C(=O)N[C@@H](CCCNC(=N)N)C(=O)N[C@@H](C)C(=O)N[C@@H](C)C(=O)N[C@@H](CCCNC(=N)N)C(=O)N[C@@H](C)C(=O)N[C@@H](C)C(=O)N[C@@H](CCCNC(=N)N)C(N)=O)C(C)C)[C@@H](C)O)[C@@H](C)CC) [Trans-3-hexenoyl-YADAIFTDSYRKVLAQLKARQDLLARAARAAR-NH2 (SEQ ID NO: 32)] | 0.11 nM
YXDAIFTDSYRKVLAQLKLRQDILARAARAAR (HELM PEPTIDE1{Y.[dA].D.A.I.F.T.D.S.Y.R.K.V.L.A.Q.L.K.L.R.Q.D.I.L.A.R.A.A.R.A.A.R.[am]}$$$$V2.0; N-terminus assumed; SMILES CC[C@H](C)[C@H](NC(=O)[C@H](C)NC(=O)[C@H](CC(=O)O)NC(=O)[C@@H](C)NC(=O)[C@@H](N)Cc1ccc(O)cc1)C(=O)N[C@@H](Cc1ccccc1)C(=O)N[C@H](C(=O)N[C@@H](CC(=O)O)C(=O)N[C@@H](CO)C(=O)N[C@@H](Cc1ccc(O)cc1)C(=O)N[C@@H](CCCNC(=N)N)C(=O)N[C@@H](CCCCN)C(=O)N[C@H](C(=O)N[C@@H](CC(C)C)C(=O)N[C@@H](C)C(=O)N[C@@H](CCC(N)=O)C(=O)N[C@@H](CC(C)C)C(=O)N[C@@H](CCCCN)C(=O)N[C@@H](CC(C)C)C(=O)N[C@@H](CCCNC(=N)N)C(=O)N[C@@H](CCC(N)=O)C(=O)N[C@@H](CC(=O)O)C(=O)N[C@H](C(=O)N[C@@H](CC(C)C)C(=O)N[C@@H](C)C(=O)N[C@@H](CCCNC(=N)N)C(=O)N[C@@H](C)C(=O)N[C@@H](C)C(=O)N[C@@H](CCCNC(=N)N)C(=O)N[C@@H](C)C(=O)N[C@@H](C)C(=O)N[C@@H](CCCNC(=N)N)C(N)=O)[C@@H](C)CC)C(C)C)[C@@H](C)O) [Y-a-DAIFTDSYRKVLAQLKLRQDILARAARAAR-NH2 (SEQ ID NO: 29)] | 0.08 nM
YXDAIFTDSYRKVLAQLKARQDLLARAARAAR (HELM PEPTIDE1{Y.[dA].D.A.I.F.T.D.S.Y.R.K.V.L.A.Q.L.K.A.R.Q.D.L.L.A.R.A.A.R.A.A.R.[am]}$$$$V2.0; N-terminus assumed; SMILES CC[C@H](C)[C@H](NC(=O)[C@H](C)NC(=O)[C@H](CC(=O)O)NC(=O)[C@@H](C)NC(=O)[C@@H](N)Cc1ccc(O)cc1)C(=O)N[C@@H](Cc1ccccc1)C(=O)N[C@H](C(=O)N[C@@H](CC(=O)O)C(=O)N[C@@H](CO)C(=O)N[C@@H](Cc1ccc(O)cc1)C(=O)N[C@@H](CCCNC(=N)N)C(=O)N[C@@H](CCCCN)C(=O)N[C@H](C(=O)N[C@@H](CC(C)C)C(=O)N[C@@H](C)C(=O)N[C@@H](CCC(N)=O)C(=O)N[C@@H](CC(C)C)C(=O)N[C@@H](CCCCN)C(=O)N[C@@H](C)C(=O)N[C@@H](CCCNC(=N)N)C(=O)N[C@@H](CCC(N)=O)C(=O)N[C@@H](CC(=O)O)C(=O)N[C@@H](CC(C)C)C(=O)N[C@@H](CC(C)C)C(=O)N[C@@H](C)C(=O)N[C@@H](CCCNC(=N)N)C(=O)N[C@@H](C)C(=O)N[C@@H](C)C(=O)N[C@@H](CCCNC(=N)N)C(=O)N[C@@H](C)C(=O)N[C@@H](C)C(=O)N[C@@H](CCCNC(=N)N)C(N)=O)C(C)C)[C@@H](C)O) [Y-a-DAIFTDSYRKVLAQLKARQDLLARAARAAR-NH2 (SEQ ID NO: 30)] | 0.18 nM
YADAIFTDSYRKVLAQLKARQDILARAARAAR (HELM PEPTIDE1{[CC/C=C/CC(=O)[*:2]].Y.A.D.A.I.F.T.D.S.Y.R.K.V.L.A.Q.L.K.A.R.Q.D.I.L.A.R.A.A.R.A.A.R.[am]}$$$$V2.0; SMILES CC/C=C/CC(=O)N[C@@H](Cc1ccc(O)cc1)C(=O)N[C@@H](C)C(=O)N[C@@H](CC(=O)O)C(=O)N[C@@H](C)C(=O)N[C@H](C(=O)N[C@@H](Cc1ccccc1)C(=O)N[C@H](C(=O)N[C@@H](CC(=O)O)C(=O)N[C@@H](CO)C(=O)N[C@@H](Cc1ccc(O)cc1)C(=O)N[C@@H](CCCNC(=N)N)C(=O)N[C@@H](CCCCN)C(=O)N[C@H](C(=O)N[C@@H](CC(C)C)C(=O)N[C@@H](C)C(=O)N[C@@H](CCC(N)=O)C(=O)N[C@@H](CC(C)C)C(=O)N[C@@H](CCCCN)C(=O)N[C@@H](C)C(=O)N[C@@H](CCCNC(=N)N)C(=O)N[C@@H](CCC(N)=O)C(=O)N[C@@H](CC(=O)O)C(=O)N[C@H](C(=O)N[C@@H](CC(C)C)C(=O)N[C@@H](C)C(=O)N[C@@H](CCCNC(=N)N)C(=O)N[C@@H](C)C(=O)N[C@@H](C)C(=O)N[C@@H](CCCNC(=N)N)C(=O)N[C@@H](C)C(=O)N[C@@H](C)C(=O)N[C@@H](CCCNC(=N)N)C(N)=O)[C@@H](C)CC)C(C)C)[C@@H](C)O)[C@@H](C)CC) [Trans-3-hexenoyl-YADAIFTDSYRKVLAQLKARQDILARAARAAR-NH2 (SEQ ID NO: 31)] | 0.1 nM
